Assay results reported in IntAct's records for PubMed 35512704.

B1: Mothers against decapentaplegic homolog 4 (Homo sapiens), Q13485 (parent)
chain: MDNMSITNTPTSNDACLSIVHSLMCHRQGGESETFAKRAIESLVKKLKEKKDELDSLITAITTNGAHPSKCVTIQRTLDGRLQVAGRKGFPHVIYARLWRWPDLHKNELKHVKYCQYAFDLKCDSVCVNPYHYERVVSPGIDLSGLTLQSNAPSSMMVKDEYVHDFEGQPSLSTEGHSIQTIQHPPSNRASTETYSTPALLAPSESNATSTANFPNIPVASTSQPASILGGSHSEGLLQIASGPQPGQQQNGFTGQPATYHHNSTTTWTGSRTAPYTPNLPHHQNGHLQHHPPMPPHPGHYWPVHNELAFQPPISNHPAPEYWCSIAYFEMDVQVGETFKVPSSCPIVTVDGYVDPSGGDRFCLGQLSNVHRTEAIERARLHIGKGVQLECKGEGDVWVRCLSDHAVFVQSYYLDREAGRAPGDAVHKIYPSAYIKVFDLRQCHRQMQQQAATAQAAAAAQAAAVAGNIPGPGSVGGIAPAISLSAAAGIGVDDLRRLCILRMSFVKGWGPDYPRQSIKETPCWIEIHLHRALQLLDEVLHTMPIADPQPLD

Variants of: B1
Conditions: with smad3_human SMAD3, P84022

Variant	effect of a mutation on the interaction
D351H	disrupting interaction strength

Variants of: B1
Conditions: with agap2_human AGAP2, Q99490

Variant	effect of a mutation on the interaction
D351H	with no effect

Variants of: B1
Conditions: with ajuba_human AJUBA

Variant	effect of a mutation on the interaction
D351H	with no effect

Variants of: B1
Conditions: with akts1_human AKT1S1, Q96B36

Variant	effect of a mutation on the interaction
D351H	with no effect

Variants of: B1
Conditions: with akt2_human AKT2, P31751

Variant	effect of a mutation on the interaction
D351H	with no effect

Variants of: B1
Conditions: with alk_human ALK

Variant	effect of a mutation on the interaction
D351H	with no effect

Variants of: B1
Conditions: with aph1a_human APH1A

Variant	effect of a mutation on the interaction
D351H	with no effect

Variants of: B1
Conditions: with arnt_human ARNT

Variant	effect of a mutation on the interaction
D351H	with no effect

Variants of: B1
Conditions: with arc1a_human ARPC1A

Variant	effect of a mutation on the interaction
D351H	with no effect

Variants of: B1
Conditions: with asxl1_human ASXL1, Q8IXJ9
Sequence of asxl1_human ASXL1, Q8IXJ9 (Q8IXJ9 whole entry): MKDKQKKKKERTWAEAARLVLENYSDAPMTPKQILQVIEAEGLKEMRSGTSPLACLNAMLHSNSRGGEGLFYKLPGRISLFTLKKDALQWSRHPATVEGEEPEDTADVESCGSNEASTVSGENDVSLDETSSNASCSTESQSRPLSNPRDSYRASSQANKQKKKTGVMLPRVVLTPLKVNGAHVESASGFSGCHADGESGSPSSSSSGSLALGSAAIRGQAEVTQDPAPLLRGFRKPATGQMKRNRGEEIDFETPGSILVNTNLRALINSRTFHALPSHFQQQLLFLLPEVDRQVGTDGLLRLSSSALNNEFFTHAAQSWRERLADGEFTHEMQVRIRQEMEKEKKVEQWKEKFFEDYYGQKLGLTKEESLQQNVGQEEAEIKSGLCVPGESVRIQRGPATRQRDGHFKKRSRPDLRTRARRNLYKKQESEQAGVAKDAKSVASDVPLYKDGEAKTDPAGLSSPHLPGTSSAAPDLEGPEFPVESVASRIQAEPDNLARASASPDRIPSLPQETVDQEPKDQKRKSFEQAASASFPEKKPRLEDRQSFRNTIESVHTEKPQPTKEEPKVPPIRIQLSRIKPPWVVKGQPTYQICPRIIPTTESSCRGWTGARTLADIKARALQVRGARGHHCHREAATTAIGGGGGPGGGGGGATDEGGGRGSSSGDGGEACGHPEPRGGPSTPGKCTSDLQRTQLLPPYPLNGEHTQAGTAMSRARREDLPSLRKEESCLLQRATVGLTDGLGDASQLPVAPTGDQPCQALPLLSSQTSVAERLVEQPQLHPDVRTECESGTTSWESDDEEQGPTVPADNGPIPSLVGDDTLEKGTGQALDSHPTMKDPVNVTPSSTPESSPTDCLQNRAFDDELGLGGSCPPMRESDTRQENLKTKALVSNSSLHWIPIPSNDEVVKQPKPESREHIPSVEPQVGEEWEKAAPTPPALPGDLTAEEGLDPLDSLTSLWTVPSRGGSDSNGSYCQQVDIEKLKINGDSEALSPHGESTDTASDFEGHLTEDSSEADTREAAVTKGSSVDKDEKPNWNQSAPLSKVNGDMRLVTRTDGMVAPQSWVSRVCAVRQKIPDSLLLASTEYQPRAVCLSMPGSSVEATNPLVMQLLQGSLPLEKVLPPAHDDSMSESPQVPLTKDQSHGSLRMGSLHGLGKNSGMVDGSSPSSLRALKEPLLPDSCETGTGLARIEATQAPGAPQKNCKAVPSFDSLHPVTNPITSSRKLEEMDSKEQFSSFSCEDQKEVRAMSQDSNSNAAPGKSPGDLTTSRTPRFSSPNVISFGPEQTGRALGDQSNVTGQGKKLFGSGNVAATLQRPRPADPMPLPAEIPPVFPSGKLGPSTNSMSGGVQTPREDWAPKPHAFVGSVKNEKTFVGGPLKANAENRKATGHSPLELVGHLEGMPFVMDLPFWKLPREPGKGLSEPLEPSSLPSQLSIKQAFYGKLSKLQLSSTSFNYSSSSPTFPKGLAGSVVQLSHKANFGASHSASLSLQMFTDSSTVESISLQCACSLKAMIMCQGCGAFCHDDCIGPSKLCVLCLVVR

Variant	effect of a mutation on the interaction
D351H	with no effect

Variants of: B1
Conditions: with atpb_human ATP5F1B

Variant	effect of a mutation on the interaction
D351H	with no effect

Variants of: B1
Conditions: with aurkb_human AURKB

Variant	effect of a mutation on the interaction
D351H	with no effect

Variants of: B1
Conditions: with ufo_human AXL

Variant	effect of a mutation on the interaction
D351H	with no effect

Variants of: B1
Conditions: with za2g_human AZGP1, P25311

Variant	effect of a mutation on the interaction
D351H	with no effect

Variants of: B1
Conditions: with b2mg_human B2M

Variant	effect of a mutation on the interaction
D351H	with no effect

Variants of: B1
Conditions: with becn1_human BECN1, Q14457

Variant	effect of a mutation on the interaction
D351H	with no effect

Variants of: B1
Conditions: with birc2_human BIRC2, Q13490

Variant	effect of a mutation on the interaction
D351H	with no effect

Variants of: B1
Conditions: with braf_human BRAF

Variant	effect of a mutation on the interaction
D351H	with no effect

Variants of: B1
Conditions: with baba2_human BABAM2, Q9NXR7

Variant	effect of a mutation on the interaction
D351H	with no effect

Variants of: B1
Conditions: with btg1_human BTG1, P62324
Sequence of btg1_human BTG1, P62324 (P62324 whole entry): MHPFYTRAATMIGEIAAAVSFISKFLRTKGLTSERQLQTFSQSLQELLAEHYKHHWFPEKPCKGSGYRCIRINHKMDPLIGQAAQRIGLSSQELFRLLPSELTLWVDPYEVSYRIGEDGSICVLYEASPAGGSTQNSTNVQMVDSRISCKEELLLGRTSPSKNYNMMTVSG

Variant	effect of a mutation on the interaction
D351H	with no effect

Variants of: B1
Conditions: with cbl_human CBL

Variant	effect of a mutation on the interaction
D351H	with no effect

Variants of: B1
Conditions: with cblb_human CBLB

Variant	effect of a mutation on the interaction
D351H	with no effect

Variants of: B1
Conditions: with ccnd1_human CCND1, P24385

Variant	effect of a mutation on the interaction
D351H	with no effect

Variants of: B1
Conditions: with ccnd2_human CCND2, P30279

Variant	effect of a mutation on the interaction
D351H	with no effect

Variants of: B1
Conditions: with ccnd3_human CCND3, P30281

Variant	effect of a mutation on the interaction
D351H	with no effect

Variants of: B1
Conditions: with ccne1_human CCNE1, P24864

Variant	effect of a mutation on the interaction
D351H	with no effect

Variants of: B1
Conditions: with cd44_human CD44, P16070

Variant	effect of a mutation on the interaction
D351H	with no effect

Variants of: B1
Conditions: with cd79b_human CD79B

Variant	effect of a mutation on the interaction
D351H	with no effect

Variants of: B1
Conditions: with cdk4_human CDK4, P11802
Sequence of cdk4_human CDK4, P11802 (P11802 whole entry): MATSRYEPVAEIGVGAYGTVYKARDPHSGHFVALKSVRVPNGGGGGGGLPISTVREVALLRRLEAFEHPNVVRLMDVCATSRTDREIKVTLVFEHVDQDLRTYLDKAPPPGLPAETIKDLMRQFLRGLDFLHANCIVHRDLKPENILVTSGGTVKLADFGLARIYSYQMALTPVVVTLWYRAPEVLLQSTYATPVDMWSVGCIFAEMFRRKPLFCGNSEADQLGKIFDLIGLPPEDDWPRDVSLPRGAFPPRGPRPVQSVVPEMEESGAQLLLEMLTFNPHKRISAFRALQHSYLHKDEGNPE

Variant	effect of a mutation on the interaction
D351H	with no effect

Variants of: B1
Conditions: with cdn2b_human CDKN2B

Variant	effect of a mutation on the interaction
D351H	with no effect

Variants of: B1
Conditions: with cdn2c_human CDKN2C

Variant	effect of a mutation on the interaction
D351H	with no effect

Variants of: B1
Conditions: with cebpa_human CEBPA

Variant	effect of a mutation on the interaction
D351H	with no effect

Variants of: B1
Conditions: with chd1l_human CHD1L

Variant	effect of a mutation on the interaction
D351H	with no effect

Variants of: B1
Conditions: with chd2_human CHD2, O14647

Variant	effect of a mutation on the interaction
D351H	with no effect

Variants of: B1
Conditions: with ch3l1_human CHI3L1, P36222

Variant	effect of a mutation on the interaction
D351H	with no effect

Variants of: B1
Conditions: with csf1r_human CSF1R

Variant	effect of a mutation on the interaction
D351H	with no effect

Variants of: B1
Conditions: with ctna1_human CTNNA1, P35221

Variant	effect of a mutation on the interaction
D351H	with no effect

Variants of: B1
Conditions: with ctnb1_human CTNNB1, P35222

Variant	effect of a mutation on the interaction
D351H	with no effect

Variants of: B1
Conditions: with cul3_human CUL3, Q13618

Variant	effect of a mutation on the interaction
D351H	with no effect

Variants of: B1
Conditions: with dicer_human DICER1, Q9UPY3
Sequence of dicer_human DICER1, Q9UPY3 (Q9UPY3 whole entry): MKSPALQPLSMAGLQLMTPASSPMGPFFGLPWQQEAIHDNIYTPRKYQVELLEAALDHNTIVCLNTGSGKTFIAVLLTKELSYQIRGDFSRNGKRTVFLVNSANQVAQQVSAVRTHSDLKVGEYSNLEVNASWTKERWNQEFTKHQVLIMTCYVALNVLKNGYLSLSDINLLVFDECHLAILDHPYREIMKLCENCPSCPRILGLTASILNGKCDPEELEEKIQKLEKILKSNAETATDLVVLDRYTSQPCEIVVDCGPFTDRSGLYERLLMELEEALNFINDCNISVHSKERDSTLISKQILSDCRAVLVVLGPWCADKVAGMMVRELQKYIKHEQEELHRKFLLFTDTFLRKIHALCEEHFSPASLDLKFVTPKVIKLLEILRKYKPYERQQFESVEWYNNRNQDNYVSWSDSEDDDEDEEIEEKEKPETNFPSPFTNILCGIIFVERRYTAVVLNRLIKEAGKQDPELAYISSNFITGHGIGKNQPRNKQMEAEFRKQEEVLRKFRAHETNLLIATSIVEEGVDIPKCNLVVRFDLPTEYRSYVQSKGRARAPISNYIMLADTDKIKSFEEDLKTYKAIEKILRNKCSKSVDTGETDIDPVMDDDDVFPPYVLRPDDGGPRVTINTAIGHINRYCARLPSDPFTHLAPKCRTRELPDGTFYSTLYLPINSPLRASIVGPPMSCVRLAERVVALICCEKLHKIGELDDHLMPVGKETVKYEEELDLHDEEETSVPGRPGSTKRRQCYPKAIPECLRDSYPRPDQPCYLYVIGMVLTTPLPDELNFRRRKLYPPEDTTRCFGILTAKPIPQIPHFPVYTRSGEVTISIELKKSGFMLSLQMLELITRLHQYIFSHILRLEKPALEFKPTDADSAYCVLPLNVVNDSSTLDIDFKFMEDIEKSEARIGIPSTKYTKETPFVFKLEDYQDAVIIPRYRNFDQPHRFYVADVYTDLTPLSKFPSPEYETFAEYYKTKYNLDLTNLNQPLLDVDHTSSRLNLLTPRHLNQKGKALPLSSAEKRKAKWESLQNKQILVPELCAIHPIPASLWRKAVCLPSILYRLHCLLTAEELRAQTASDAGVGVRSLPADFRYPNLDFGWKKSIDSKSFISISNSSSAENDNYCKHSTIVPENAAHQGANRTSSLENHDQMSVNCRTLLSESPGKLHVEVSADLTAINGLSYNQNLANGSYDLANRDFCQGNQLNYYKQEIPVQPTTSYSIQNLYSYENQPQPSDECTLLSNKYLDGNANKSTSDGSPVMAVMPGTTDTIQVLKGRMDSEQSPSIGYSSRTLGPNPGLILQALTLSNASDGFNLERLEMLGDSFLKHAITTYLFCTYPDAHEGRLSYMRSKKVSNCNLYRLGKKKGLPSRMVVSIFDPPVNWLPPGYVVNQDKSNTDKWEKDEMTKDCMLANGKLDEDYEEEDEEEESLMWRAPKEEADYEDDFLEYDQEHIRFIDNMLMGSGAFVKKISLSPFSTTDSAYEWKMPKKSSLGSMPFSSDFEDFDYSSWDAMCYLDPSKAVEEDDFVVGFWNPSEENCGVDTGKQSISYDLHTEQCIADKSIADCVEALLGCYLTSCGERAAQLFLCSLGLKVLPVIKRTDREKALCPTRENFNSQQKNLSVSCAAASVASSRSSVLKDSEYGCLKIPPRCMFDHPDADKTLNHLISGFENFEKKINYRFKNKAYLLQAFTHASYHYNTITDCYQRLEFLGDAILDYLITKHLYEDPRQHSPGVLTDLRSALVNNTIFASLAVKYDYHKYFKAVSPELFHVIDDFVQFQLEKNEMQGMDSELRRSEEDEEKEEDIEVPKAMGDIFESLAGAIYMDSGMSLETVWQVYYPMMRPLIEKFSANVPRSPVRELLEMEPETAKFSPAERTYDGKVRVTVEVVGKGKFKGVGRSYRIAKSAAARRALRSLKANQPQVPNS

Variant	effect of a mutation on the interaction
D351H	with no effect

Variants of: B1
Conditions: with duox2_human DUOX2, Q9NRD8

Variant	effect of a mutation on the interaction
D351H	with no effect

Variants of: B1
Conditions: with e2f1_human E2F1, Q01094

Variant	effect of a mutation on the interaction
D351H	with no effect

Variants of: B1
Conditions: with e2f2_human E2F2, Q14209

Variant	effect of a mutation on the interaction
D351H	with no effect

Variants of: B1
Conditions: with e2f3_human E2F3, O00716
Sequence of e2f3_human E2F3, O00716 (O00716 whole entry): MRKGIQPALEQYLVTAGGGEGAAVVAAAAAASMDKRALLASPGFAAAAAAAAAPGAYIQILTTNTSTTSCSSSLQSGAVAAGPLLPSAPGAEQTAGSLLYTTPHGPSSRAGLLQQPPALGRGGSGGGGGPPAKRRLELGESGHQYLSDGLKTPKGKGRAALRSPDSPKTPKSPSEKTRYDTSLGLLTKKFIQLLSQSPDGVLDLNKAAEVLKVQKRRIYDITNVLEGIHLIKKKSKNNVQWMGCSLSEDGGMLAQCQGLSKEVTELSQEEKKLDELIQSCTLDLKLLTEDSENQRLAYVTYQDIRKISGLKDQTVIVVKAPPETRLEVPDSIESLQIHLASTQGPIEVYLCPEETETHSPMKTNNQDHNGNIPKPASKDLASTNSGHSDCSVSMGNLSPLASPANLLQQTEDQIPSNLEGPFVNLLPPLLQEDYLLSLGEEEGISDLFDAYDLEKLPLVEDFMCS

Variant	effect of a mutation on the interaction
D351H	with no effect

Variants of: B1
Conditions: with e2f4_human E2F4, Q16254
Sequence of e2f4_human E2F4, Q16254 (Q16254 whole entry): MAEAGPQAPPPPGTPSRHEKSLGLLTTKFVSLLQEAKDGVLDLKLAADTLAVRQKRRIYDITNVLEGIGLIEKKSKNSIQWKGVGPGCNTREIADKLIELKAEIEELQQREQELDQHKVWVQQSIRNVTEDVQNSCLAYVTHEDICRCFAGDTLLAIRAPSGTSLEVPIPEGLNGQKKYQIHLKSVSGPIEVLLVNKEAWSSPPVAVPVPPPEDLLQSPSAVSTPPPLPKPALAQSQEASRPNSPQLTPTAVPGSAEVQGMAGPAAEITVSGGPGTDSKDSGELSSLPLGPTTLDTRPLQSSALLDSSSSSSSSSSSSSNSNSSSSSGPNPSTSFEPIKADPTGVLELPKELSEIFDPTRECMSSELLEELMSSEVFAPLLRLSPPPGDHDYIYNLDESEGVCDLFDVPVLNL

Variant	effect of a mutation on the interaction
D351H	with no effect

Variants of: B1
Conditions: with e2f5_human E2F5, Q15329

Variant	effect of a mutation on the interaction
D351H	with no effect

Variants of: B1
Conditions: with if4e_human EIF4E

Variant	effect of a mutation on the interaction
D351H	with no effect

Variants of: B1
Conditions: with epha7_human EPHA7, Q15375

Variant	effect of a mutation on the interaction
D351H	with no effect

Variants of: B1
Conditions: with ephb1_human EPHB1, P54762

Variant	effect of a mutation on the interaction
D351H	with no effect

Variants of: B1
Conditions: with erbb3_human ERBB3, P21860

Variant	effect of a mutation on the interaction
D351H	with no effect

Variants of: B1
Conditions: with erbb4_human ERBB4, Q15303

Variant	effect of a mutation on the interaction
D351H	with no effect

Variants of: B1
Conditions: with esr1_human ESR1, P03372

Variant	effect of a mutation on the interaction
D351H	with no effect

Variants of: B1
Conditions: with etv1_human ETV1, P50549

Variant	effect of a mutation on the interaction
D351H	with no effect

Variants of: B1
Conditions: with fadd_human FADD

Variant	effect of a mutation on the interaction
D351H	with no effect

Variants of: B1
Conditions: with facd2_human FANCD2, Q9BXW9

Variant	effect of a mutation on the interaction
D351H	with no effect

Variants of: B1
Conditions: with fgf19_human FGF19, O95750

Variant	effect of a mutation on the interaction
D351H	with no effect

Variants of: B1
Conditions: with fgfp1_human FGFBP1, Q14512

Variant	effect of a mutation on the interaction
D351H	with no effect

Variants of: B1
Conditions: with fgfr3_human FGFR3, P22607

Variant	effect of a mutation on the interaction
D351H	with no effect

Variants of: B1
Conditions: with fgfr4_human FGFR4, P22455

Variant	effect of a mutation on the interaction
D351H	with no effect

Variants of: B1
Conditions: with fumh_human FH

Variant	effect of a mutation on the interaction
D351H	with no effect

Variants of: B1
Conditions: with foxo1_human FOXO1, Q12778

Variant	effect of a mutation on the interaction
D351H	with no effect

Variants of: B1
Conditions: with foxo3_human FOXO3, O43524

Variant	effect of a mutation on the interaction
D351H	with no effect

Variants of: B1
Conditions: with gbra6_human GABRA6, Q16445

Variant	effect of a mutation on the interaction
D351H	with no effect

Variants of: B1
Conditions: with gata2_human GATA2, P23769

Variant	effect of a mutation on the interaction
D351H	with no effect

Variants of: B1
Conditions: with gata3_human GATA3, P23771

Variant	effect of a mutation on the interaction
D351H	with no effect

Variants of: B1
Conditions: with gna11_human GNA11, P29992

Variant	effect of a mutation on the interaction
D351H	with no effect

Variants of: B1
Conditions: with gna13_human GNA13, Q14344

Variant	effect of a mutation on the interaction
D351H	with no effect

Variants of: B1
Conditions: with gnaq_human GNAQ

Variant	effect of a mutation on the interaction
D351H	with no effect

Variants of: B1
Conditions: with grb7_human GRB7, Q14451

Variant	effect of a mutation on the interaction
D351H	with no effect

Variants of: B1
Conditions: with grm1_human GRM1, Q13255

Variant	effect of a mutation on the interaction
D351H	with no effect

Variants of: B1
Conditions: with grm3_human GRM3, Q14832

Variant	effect of a mutation on the interaction
D351H	with no effect

Variants of: B1
Conditions: with gsk3a_human GSK3A

Variant	effect of a mutation on the interaction
D351H	with no effect

Variants of: B1
Conditions: with hdac1_human HDAC1, Q13547

Variant	effect of a mutation on the interaction
D351H	with no effect

Variants of: B1
Conditions: with hdac3_human HDAC3, O15379

Variant	effect of a mutation on the interaction
D351H	with no effect

Variants of: B1
Conditions: with hgf_human HGF

Variant	effect of a mutation on the interaction
D351H	with no effect

Variants of: B1
Conditions: with h31_human H3C1, P68431

Variant	effect of a mutation on the interaction
D351H	with no effect

Variants of: B1
Conditions: with hlab_human HLA-B

Variant	effect of a mutation on the interaction
D351H	with no effect

Variants of: B1
Conditions: with rash_human HRAS

Variant	effect of a mutation on the interaction
D351H	with no effect

Variants of: B1
Conditions: with hs90a_human HSP90AA1, P07900

Variant	effect of a mutation on the interaction
D351H	with no effect

Variants of: B1
Conditions: with il7ra_human IL7R

Variant	effect of a mutation on the interaction
D351H	with no effect

Variants of: B1
Conditions: with irf6_human IRF6, O14896

Variant	effect of a mutation on the interaction
D351H	with no effect

Variants of: B1
Conditions: with irs1_human IRS1, P35568

Variant	effect of a mutation on the interaction
D351H	with no effect

Variants of: B1
Conditions: with jak1_human JAK1, P23458

Variant	effect of a mutation on the interaction
D351H	with no effect

Variants of: B1
Conditions: with kat2a_human KAT2A

Variant	effect of a mutation on the interaction
D351H	with no effect

Variants of: B1
Conditions: with kdm5c_human KDM5C

Variant	effect of a mutation on the interaction
D351H	with no effect

Variants of: B1
Conditions: with kdm6a_human KDM6A

Variant	effect of a mutation on the interaction
D351H	with no effect

Variants of: B1
Conditions: with vgfr2_human KDR

Variant	effect of a mutation on the interaction
D351H	with no effect
